According to patent US20240016923A1:

Key:
[1] = target: secreted E2 ectodomain (sE2), HCV E2 residues 384-661 (Hepatitis C virus, isolate H77C) (UniProt P27958); experiment: SPR (Biacore T200); sE2 amine-coupled to a CM5 chip, CD81-LEL injected; 1:1 model, Kd = koff/kon
[2] = target: secreted E2 ectodomain (sE2), HCV E2 residues 384-661 (Hepatitis C virus, isolate H77C) (UniProt P27958); experiment: SPR (Biacore T200); sE2 amine-coupled to a CM5 chip, CD81-LEL injected; 1:1 model

B1: CD81 large extracellular loop (CD81-LEL) (receptor, UniProt P60033 113-201, looked up, not shown: small tags and cut ends)
chain: FVNKDQIAKDVKQFYDQALQQAVVDDDANNAKAVVKTFHETLDCCGSSTLTALTTSVLKNNLCPSGSNIISNLFKEDCHQKIDDLFSGK
Kd [1]: 7 nM
koff [2]: 0.00045 s⁻¹
kon [2]: 65000 M⁻¹ s⁻¹
